According to patent US20110124071A1, “METHODS AND COMPOSITIONS FOR PRODUCING HYDROCARBONS” (priority 2009, published 2011):

T1: Prochlorococcus marinus CCMP1986 PMM0532 (NP-892650; putative decarbonylase)
T1 sequence: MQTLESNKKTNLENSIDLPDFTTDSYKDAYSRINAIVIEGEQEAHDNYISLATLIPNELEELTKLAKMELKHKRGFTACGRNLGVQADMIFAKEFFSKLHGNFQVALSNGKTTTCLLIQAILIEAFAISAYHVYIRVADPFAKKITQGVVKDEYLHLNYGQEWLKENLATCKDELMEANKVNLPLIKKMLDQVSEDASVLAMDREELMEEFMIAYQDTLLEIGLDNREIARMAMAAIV

B1: PMM0533: Prochlorococcus marinus CCMP1986 putative aldehyde-generating enzyme (SEQ ID NO: 72) (protein, listed as Prochlorococcus marinus)
chain: MFGLIGHSTSFEDAKRKASLLGFDHIADGDLDVWCTAPPQLVENVEVKSAIGISIEGSYIDSCFVPEMLSRFKTARRKVLNAMELAQKKGINITALGGFTSIIFENFNLLQHKQIRNTSLEWERFTTGNTHTAWVICRQLEMNAPKIGIDLKSATVAVVGATGDIGSAVCRWLINKTGIGELLLVARQKEPLDSLQKELDGGTIKNLDEALPEADIVVWVASMPKTMEIDANNLKQPCLMIDGGYPKNLDEKFQGNNIHVVKGGIVRFFNDIGWNMMELAEMQNPQREMFACFAEAMILEFEKCHTNFSWGRNNISLEKMEFIGAASVKHGFSAIGLDKHPKVLAV
B2: ATCC51142 cce—1430: Cyanothece sp. ATCC51142 putative aldehyde-generating enzyme, Acyl-ACP reductase (SEQ ID NO: 70) (protein, listed as Cyanothece sp.)
chain: MFGLIGHLTSLEHAHSVADAFGYGPYATQGLDLWCSAPPQFVEHFHVTSITGQTIEGKYIESAFLPEMLIKRRIKAAIRKILNAMAFAQKNNLNITALGGFSSIIFEEFNLKENRQVRNVSLEFDRFTTGNTHTAYIICRQVEQASAKLGIDLSQATVAICGATGDIGSAVCRWLDRKTDTQELFLIARNKERLQRLQDELGRGKIMGLEEALPEADIIVWVASMPKGVEINAETLKKPCLIIDGGYPKNLDTKIKHPDVHILKGGIVEHSLDIDWKIMETVNMDVPSRQMFACFAEAILLEFEQWHTNFSWGRNQITVTKMEQIGEASVKHGLQPLLSW
B3: PCC7942_orf1594 protein (Synechococcus elongatus PCC 7942 = FACHB-805) (protein)
chain: MFGLIGHLTSLEQARDVSRRMGYDEYADQGLEFWSSAPPQIVDEITVTSATGKVIHGRYIESCFLPEMLAARRFKTATRKVLNAMSHAQKHGIDISALGGFTSIIFENFDLASLRQVRDTTLEFERFTTGNTHTAYVICRQVEAAAKTLGIDITQATVAVVGATGDIGSAVCRWLDLKLGVGDLILTARNQERLDNLQAELGRGKILPLEAALPEADFIVWVASMPQGVVIDPATLKQPCVLIDGGYPKNLGSKVQGEGIYVLNGGVVEHCFDIDWQIMSAAEMARPERQMFACFAEAMLLEFEGWHTNFSWGRNQITIEKMEAIGEASVRHGFQPLALAI
notes: His-tag (C); made in house; host or cells: E. coli BL21 (DE3)

Experiments:
[1] = system: T1, Prochlorococcus marinus CCMP1986 PMM0532 (NP-892650; putative decarbonylase)
E. coli MG1655 = assay: Heterologous expression of putative aldehyde-generating enzyme alone in E. coli, GC-MS of extracts; format: cell-based; conditions: enzyme expressed alone in E. coli MG1655, M9 minimal media, 37° C.
Method: The genomic DNA encoding Synechococcus elongatus PCC7942 orf1594 (YP—400611; putative aldehyde-generating enzyme) (SEQ ID NO: 65) was amplified and cloned into the NcoI and EcoRI sites of vector OP-80 (pCL1920 derivative) under the control of the Ptrc promoter. The resulting construct (“OP80-PCC7942—1594”) was transformed into E. coli MG1655 and the cells were grown at 37° C. in M9 minimal media with 1% (w/v) glucose as carbon source and supplemented with 100 μg/ml spectinomycin. When the culture reached OD600 of 0.8-1.0, it was induced with 1 mM IPTG and cells were grown for an additional 18-20 h at 37° C. Cells from 0.5 ml of culture were extracted with 0.5 ml of ethyl acetate. After sonication for 60 min, the sample was centrifuged at 15,000 rpm for 5 min. The solvent layer was analyzed by GC-MS as described in Example 1.
The genomic DNA encoding Cyanothece sp. ATCC51142 cce—1430 (YP—001802846; putative aldehyde-generating enzyme) (SEQ ID NO: 70) was amplified and cloned into the NcoI and EcoRI sites of vector OP-80 (pCL1920 derivative) under the control of the Ptrc promoter. The resulting construct was transformed into E. coli MG1655 and the cells were grown at 37° C. in M9 minimal media with 1% (w/v) glucose as carbon source and supplemented with 100 μg/ml spectinomycin. The cells were cultured and extracted as in Example 3 and analyzed by GC-MS as described in Example 26.
The genomic DNA encoding P. mariunus CCMP1986 PMM0533 (NP_892651; putative aldehyde-generating enzyme) (SEQ ID NO: 72) and Prochlorococcus mariunus CCMP1986 PMM0532 (NP_892650; putative decarbonylase) (SEQ ID NO: 19) were amplified and cloned into the NcoI and EcoRI sites of vector OP-80 and the NdeI and XhoI sites of vector OP-183, respectively. The resulting constructs were separately transformed and cotransformed into E. coli MG1655 and the cells were grown at 37° C. in M9 minimal media supplemented with 100 μg/ml spectinomycin and 100 μg/ml carbenicillin. The cells were cultured and extracted as in Example 3 and analyzed by GC-MS as described in Example 26.

[2] = substrate: CCCCCCCCCCCCCCCCCC(=O)SCCNC(=O)CCNC(=O)[C@H](O)C(C)(C)COP(=O)(O)OP(=O)(O)OC[C@H]1O[C@@H](n2cnc3c(N)ncnc32)[C@H](O)[C@@H]1OP(=O)(O)O; assay: acyl-ACP or acyl-CoA reductase enzyme assay, GC/MS; format: biochemical; conditions: other: in the presence of 2 mM NADPH; pH 7.5; 37.0 °C
Method: The genomic DNA encoding S. elongatus PCC7492 orf1594 (SEQ ID NO: 66) was cloned into the NcoI and XhoI sites of vector pET-28b under the control of the T7 promoter. The resulting PCC7942_orf1594 protein contained a C-terminal His-tag. An E. coli BL21 strain (DE3) (Invitrogen) was transformed with the plasmid and PCC7942_orf1594 protein was expressed and purified as described in Example 22. The protein solution was stored in the following buffer: 50 mM sodium phosphate, pH 7.5, 100 mM NaCl, 1 mM THP, 10% glycerol. Protein concentration was determined using the Bradford assay (Bio-Rad). 2 mg/ml of PCC7942 orf1594 protein was obtained.
To test PCC7942_orf1594 protein for acyl-ACP or acyl-CoA reductase activity, the following enzyme assays were set-up. 100 μl reactions were set-up in 50 mM Tris-HCl buffer at pH 7.5 with the following components at their respective final concentrations: 10 μM of purified PCC7942_orf1594 protein, 0.01-1 mM acyl-CoA or acyl-ACP, 2 mM MgCl2, 0.2-2 mM NADPH. The reactions were incubated for 1 h at 37° C. and where stopped by adding 100 μl ethyl acetate (containing 5 mg/l 1-octadecene as internal standard). […] 80 μl of the top layer were transferred into GC glass vials and analyzed by GC/MS as described in Example 26. The amount of aldehyde formed was calculated based on the internal standard.

[3] = system: E. coli MG1655 ΔfadE lacZ::Ptrc ′tesA-fadD; assay: Heterologous expression in a fatty acyl-CoA-producing E. coli strain, GC-MS; format: cell-based; conditions: reductase coexpressed with a fatty aldehyde decarbonylase
Text: The genomic DNA encoding Acaryochloris marina MBIC11017 AM1—4041 (YP—001518340; putative fatty aldehyde decarbonylase) (SEQ ID NO: 9) was synthesized and cloned into the NdeI and XhoI sites of vector OP-183 (pACYC derivative) under the control of the Ptrc promoter. The resulting construct was cotransformed with OP80-PCC7942—1594 into E. coli MG1655 ΔfadE lacZ::Ptrc ′tesA-fadD. This strain expresses a cytoplasmic version of the E. coli thioesterase, ′TesA, and the E. coli acyl-CoA synthetase, FadD, under the control of the Ptrc promoter, and therefore produces fatty acyl-CoAs. The cells were grown at 37° C. in M9 minimal media supplemented with 100 μg/ml spectinomycin and 100 μg/ml carbenicillin. The cells were cultured and extracted as in Example 3 and analyzed by GC-MS as described in Example 1.
The genomic DNA encoding Synechocystis sp. PCC6803 sll0208 (NP_442147; putative fatty aldehyde decarbonylase) (SEQ ID NO: 3) was synthesized and cloned into the NdeI and XhoI sites of vector OP-183 (pACYC derivative) under the control of the Ptrc promoter. The genomic DNA encoding Synechocystis sp. PCC6803 sll0209 (NP_442146; acyl-ACP reductase) (SEQ ID NO: 68) was synthesized and cloned into the NcoI and EcoRI sites of vector OP-183 (pACYC derivative) under the control of the Ptrc promoter. The resulting constructs were cotransformed with into E. coli MG1655 ΔfadE lacZ::Ptrc ′tesA-fadD. This strain expresses a cytoplasmic version of the E. coli thioesterase, ′TesA, and the E. coli acyl-CoA synthetase, FadD, under the control of the Ptrc promoter, and therefore produces fatty acyl-CoAs. The cells were grown at 37° C. in M9 minimal media supplemented with 100 μg/ml spectinomycin and 100 μg/ml carbenicillin. The cells were cultured and extracted as in Example 3 and analyzed by GC-MS as described in Example 26.

| Molecule | fatty alcohol, alkane and alkene production (GC/MS) in E. coli MG1655, PMM0533 alone against PMM0533 coexpressed with PMM0532 [1] | production of fatty aldehydes and fatty alcohols (E. coli MG1655) | Km for the reduction of octadecenoyl-ACP in the presence of 2 mM NADPH (in vitro reductase assay, GC/MS) (octadecenoyl-ACP) [µM] | Km [2] [µM] | use of acyl-CoA as substrate to produce fatty aldehydes [3] |
| --- | --- | --- | --- | --- | --- |
| Prochlorococcus marinus CCMP1986 PMM0533 (NP-892651; putative aldehyde-generating enzyme) | E. coli cells transformed with only the P. mariunus CCMP1986 PMM0533-bearing vector did not produce any fatty aldehydes or fatty alcohols. However, E. coli cells cotransformed with PMM0533 and PMM0532-bearing vectors produced hexadecanol, pentadecane and heptadecene | – | – | – | – |
| B1 | – | did not produce any fatty aldehydes or fatty alcohols | – | – | – |
| B2 | – | generates aldehydes in vivo | – | – | – |
| B3 | – | generates aldehydes in vivo | 7.8 ± 2 | 45 ± 20 | able to use acyl-CoA as a substrate |
